The values that follow come from paper PMC2908078, “The YEATS family member GAS41 interacts with the general transcription factor TFIIF” (BMC Molecular Biology, 2010).

This experiment concerns the target T1, His-GAS41 (human, UniProt O95619 1-227).
T1 construct: source: E. coli M15 [pRep4], pQE30, purified (Ni-NTA)
Kind of experiment: pull-down; GST-RAP30 full length or fragments d1-d3 on glutathione-sepharose 4B as bait, purified His-GAS41 (10-20 ug) as prey, over night at 4°C; immunoblot. Particulars: both partners purified. Background: Immunoblotting shows a protein as a band on a membrane.

T1 sequence (O95619 whole entry): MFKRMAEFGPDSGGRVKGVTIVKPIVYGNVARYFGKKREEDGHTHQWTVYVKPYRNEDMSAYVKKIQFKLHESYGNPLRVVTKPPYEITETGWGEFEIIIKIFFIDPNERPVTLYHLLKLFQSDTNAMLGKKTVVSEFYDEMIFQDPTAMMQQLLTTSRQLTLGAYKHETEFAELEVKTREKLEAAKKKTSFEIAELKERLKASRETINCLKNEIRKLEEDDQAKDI

B1: GST-RAP30 d2 (RAP74 binding domain and polymerase binding domain, aa1-169) (domain or fragment, human, UniProt P13984 1-169, looked up)
chain: MAERGELDLTGAKQNTGVWLVKVPKYLSQQWAKASGRGEVGKLRIAKTQGRTEVSFTLNEDLANIHDIGGKPASVSAPREHPFVLQSVGGQTLTVFTESSSDKLSLEGIVVQRAECRPAASENYMRLKRLQIEESSKPVRLSQQLDKVVTTNYKPVANHQYNIEYERKK
notes: source: E. coli BL21 (DE3), pGEX-4T1
On to B1, for which the binding result is listed as “binds”.

B2: GST-RAP30 d3 (DNA binding site, aa169-249) (domain or fragment, human, UniProt P13984 169-249, looked up)
chain: KKEDGKRARADKQHVLDMLFSAFEKHQYYNLKDLVDITKQPVVYLKEILKEIGVQNVKGIHKNTWELKPEYRHYQGEEKSD
notes: as for B1
For B2, the binding result was “binds”.
